Results from paper PMC4642984, “CRY Drives Cyclic CK2-Mediated BMAL1 Phosphorylation to Control the Mammalian Circadian Clock” (PLoS Biology, 2015).

Target: T1, ELucC-BMAL1 (mouse, UniProt Q9WTL8-2 1-625)
T1 construct: full-length mouse BMAL1 cDNA ligated downstream of ELucC; also called ELucC-BMAL1-WT (full length); ELucC-mBMAL1; source: Cos7 cells, transfected, in living cells; not shown: ELucC (C-terminal fragment of Emerald luciferase), N-terminal, kept
Experiment: split reporter (BiFC, NanoBiT); Split Luc complementation in living Cos7 cells transfected with ELucN-CK2β and ELucC-BMAL1 (WT or mutant) together with pcDNA, Myc-HA-CRY1, Myc-CRY2 or FLAG-CRY1 (WT or Cd1-4); real-time bioluminescence, averaged peak values
Details: partners not purified

T1 sequence (Q9WTL8 other isoform, or with tags, fused parts or gaps): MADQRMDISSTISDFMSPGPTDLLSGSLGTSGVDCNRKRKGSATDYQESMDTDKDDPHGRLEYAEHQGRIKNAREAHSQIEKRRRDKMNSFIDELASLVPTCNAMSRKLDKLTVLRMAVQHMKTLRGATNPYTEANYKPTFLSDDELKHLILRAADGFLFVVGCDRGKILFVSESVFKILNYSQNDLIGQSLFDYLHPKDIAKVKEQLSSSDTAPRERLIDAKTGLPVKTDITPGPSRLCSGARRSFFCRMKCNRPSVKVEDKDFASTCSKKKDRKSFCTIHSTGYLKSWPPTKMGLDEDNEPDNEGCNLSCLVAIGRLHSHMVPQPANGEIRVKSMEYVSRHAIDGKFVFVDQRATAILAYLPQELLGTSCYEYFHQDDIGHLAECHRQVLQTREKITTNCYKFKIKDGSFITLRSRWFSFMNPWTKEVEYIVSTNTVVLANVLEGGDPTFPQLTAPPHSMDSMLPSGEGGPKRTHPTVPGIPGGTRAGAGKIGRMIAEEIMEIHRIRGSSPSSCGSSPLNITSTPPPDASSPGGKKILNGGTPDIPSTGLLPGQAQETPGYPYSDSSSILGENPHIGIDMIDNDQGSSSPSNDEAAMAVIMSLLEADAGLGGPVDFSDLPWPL

B1: ELucN-CK2β (natural protein)
chain: not shown
notes: full-length human CK2β cDNA ligated downstream of ELucN; Vector backbone pcDNA4/V5-His (B) or pcDNA3.1; also called CMV-ELucN-CK2β; source: Cos7 or U-2OS cells, transfected, in living cells; not shown: ELucN (N-terminal fragment of Emerald luciferase), N-terminal, kept
fold increase of Split Luc bioluminescence in the presence of CRY proteins: ~4 fold
fold increase of Split Luc bioluminescence on over-expression of Myc-tagged CRY1 or CRY2: ~6 fold
